The values below are quoted from earlier work in article PMC11497281.

This data set concerns the target Asp27 (UniProt position 27, WNLPADLAWFK).

Turning to “Dihydrofolate reductase (DHFR) (Escherichia coli)”, the pKa entry is “approximately 6.5”.
